± gives the uncertainty stated by the source.
B1: Gamma-crystallin D, residues 90 to 170; numbered along this chain, P07320 (parent)
chain: IRLYEREDYRGQMIEFTEDCSCLQDRFRFNEIHSLNVLEGSWVLYELSNYRGRQYLLMPGDYRRYQDWGATNARVGSLRRV

Variants of: B1
Assay: abundance fitness (aPCA) (normalised: wild type 0, dead -1); higher = more abundant; growth selection in yeast, the domain comes from the species named
Settings: Homo sapiens

H33E and N36D are within error of each other in abundance fitness: 0.078 ± 0.13 for the first, -0.051 ± 0.23 for the second.

N36G and N36H are within error of each other in abundance fitness: -0.087 ± 0.085 for the first, -0.058 ± 0.14 for the second.

N36F and N36I are within error of each other in abundance fitness: 0.114 ± 0.24 for the first, -0.05 ± 0.14 for the second.

Going from N36T to N36P, the abundance fitness falls from -0.153 ± 0.12 to -1.23 ± 0.23.

N36C and N36K are within error of each other in abundance fitness: -0.054 ± 0.1 for the first, -0.023 ± 0.17 for the second.

N36A and N36E are within error of each other in abundance fitness: 0.045 ± 0.081 for the first, 0.023 ± 0.12 for the second.

N36M and N36Q are within error of each other in abundance fitness: -0.112 ± 0.16 for the first, 0.051 ± 0.098 for the second.

N36V and N36R are within error of each other in abundance fitness: -0.098 ± 0.12 for the first, 0.006 ± 0.086 for the second.

N36W and N36Y are within error of each other in abundance fitness: 0.076 ± 0.061 for the first, -0.086 ± 0.22 for the second.

N36S and S21I are within error of each other in abundance fitness: 0.135 ± 0.084 for the first, 0.004 ± 0.27 for the second.

S21D and S21R are within error of each other in abundance fitness: 0.044 ± 0.16 for the first, -0.03 ± 0.075 for the second.

S21T and S21F are within error of each other in abundance fitness: -0.047 ± 0.12 for the first, 0.017 ± 0.16 for the second.

S21C and S21P are within error of each other in abundance fitness: -0.054 ± 0.13 for the first, -0.215 ± 0.14 for the second.

S21H and S21K are within error of each other in abundance fitness: -0.088 ± 0.19 for the first, -0.045 ± 0.12 for the second.

S21E and S21A are within error of each other in abundance fitness: 0.069 ± 0.12 for the first, -0.023 ± 0.1 for the second.

S21M and S21Q are within error of each other in abundance fitness: -0.171 ± 0.2 for the first, -0.246 ± 0.16 for the second.

S21N and S21V are within error of each other in abundance fitness: -0.183 ± 0.31 for the first, -0.044 ± 0.078 for the second.

S21Y and S21G are within error of each other in abundance fitness: 0.069 ± 0.28 for the first, -0.05 ± 0.064 for the second.

S21W and C22M are within error of each other in abundance fitness: -0.099 ± 0.085 for the first, 0.091 ± 0.18 for the second.

C22S and C22A are within error of each other in abundance fitness: 0.015 ± 0.069 for the first, 0.002 ± 0.1 for the second.

C22F and C22P are within error of each other in abundance fitness: 0.113 ± 0.23 for the first, -0.104 ± 0.11 for the second.

C22D and C22N are within error of each other in abundance fitness: 0.089 ± 0.32 for the first, -0.149 ± 0.17 for the second.

C22L and C22Q are within error of each other in abundance fitness: -0.049 ± 0.096 for the first, -0.023 ± 0.12 for the second.

C22H and C22Y are within error of each other in abundance fitness: -0.07 ± 0.24 for the first, -0.009 ± 0.15 for the second.

C22E and C22G are within error of each other in abundance fitness: 0.056 ± 0.079 for the first, 0.019 ± 0.053 for the second.

C22W and C22K are within error of each other in abundance fitness: -0.107 ± 0.086 for the first, -0.134 ± 0.13 for the second.

C22V and C22R are within error of each other in abundance fitness: -0.08 ± 0.081 for the first, -0.044 ± 0.071 for the second.

N30Y and N30G are within error of each other in abundance fitness: -0.1 ± 0.18 for the first, 0.054 ± 0.071 for the second.

N30I and N30A are within error of each other in abundance fitness: 0.187 ± 0.21 for the first, 0.028 ± 0.11 for the second.

N30E and N30V are within error of each other in abundance fitness: 0.092 ± 0.16 for the first, 0.143 ± 0.045 for the second.

Compared with N30K, N30L is lower in abundance fitness: 0.107 ± 0.14 for the first, -0.122 ± 0.084 for the second.

N30R and N30T are within error of each other in abundance fitness: 0.024 ± 0.08 for the first, 0.038 ± 0.18 for the second.

N30H and N30W are within error of each other in abundance fitness: -0.081 ± 0.27 for the first, -0.036 ± 0.087 for the second.

N30M and N30D are within error of each other in abundance fitness: -0.051 ± 0.15 for the first, 0.018 ± 0.18 for the second.

R28Q and R28G are within error of each other in abundance fitness: 0.1 ± 0.11 for the first, -0.031 ± 0.066 for the second.

R28D and R28Y are within error of each other in abundance fitness: 0.128 ± 0.22 for the first, -0.004 ± 0.2 for the second.

R28M and R28S are within error of each other in abundance fitness: 0.065 ± 0.14 for the first, 0.024 ± 0.075 for the second.

Compared with R28H, R28P is higher in abundance fitness: -0.32 ± 0.16 for the first, -0.023 ± 0.1 for the second.

R28T and R28C are within error of each other in abundance fitness: -0.002 ± 0.14 for the first, -0.047 ± 0.083 for the second.

R28K and R28F are within error of each other in abundance fitness: 0.139 ± 0.13 for the first, -0.203 ± 0.23 for the second.

R28A and R28I are within error of each other in abundance fitness: -0.005 ± 0.11 for the first, 0.029 ± 0.23 for the second.

R28E showed an abundance fitness of -0.177 ± 0.13.

Reference: the Human Domainome abundance scans (Beltran et al. 2025)
